Measurements reported in patent US20040265295A1 (WISCONSIN ALUMNI RESEARCH FOUNDATION, published 2004).

Molecular target: T1, talin (Homo sapiens (Human), UniProt Q9Y490 1-2541)
T1 construct: Endogenous talin of HEK293T (and other) cells, detected with anti-talin antibody; also called talin (endogenous, in cell lysates)
Test: immunoprecipitation of talin from HEK293T cells overexpressing the kinase

T1 sequence (Q9Y490 other isoform, or with tags, fused parts or gaps limits assumed): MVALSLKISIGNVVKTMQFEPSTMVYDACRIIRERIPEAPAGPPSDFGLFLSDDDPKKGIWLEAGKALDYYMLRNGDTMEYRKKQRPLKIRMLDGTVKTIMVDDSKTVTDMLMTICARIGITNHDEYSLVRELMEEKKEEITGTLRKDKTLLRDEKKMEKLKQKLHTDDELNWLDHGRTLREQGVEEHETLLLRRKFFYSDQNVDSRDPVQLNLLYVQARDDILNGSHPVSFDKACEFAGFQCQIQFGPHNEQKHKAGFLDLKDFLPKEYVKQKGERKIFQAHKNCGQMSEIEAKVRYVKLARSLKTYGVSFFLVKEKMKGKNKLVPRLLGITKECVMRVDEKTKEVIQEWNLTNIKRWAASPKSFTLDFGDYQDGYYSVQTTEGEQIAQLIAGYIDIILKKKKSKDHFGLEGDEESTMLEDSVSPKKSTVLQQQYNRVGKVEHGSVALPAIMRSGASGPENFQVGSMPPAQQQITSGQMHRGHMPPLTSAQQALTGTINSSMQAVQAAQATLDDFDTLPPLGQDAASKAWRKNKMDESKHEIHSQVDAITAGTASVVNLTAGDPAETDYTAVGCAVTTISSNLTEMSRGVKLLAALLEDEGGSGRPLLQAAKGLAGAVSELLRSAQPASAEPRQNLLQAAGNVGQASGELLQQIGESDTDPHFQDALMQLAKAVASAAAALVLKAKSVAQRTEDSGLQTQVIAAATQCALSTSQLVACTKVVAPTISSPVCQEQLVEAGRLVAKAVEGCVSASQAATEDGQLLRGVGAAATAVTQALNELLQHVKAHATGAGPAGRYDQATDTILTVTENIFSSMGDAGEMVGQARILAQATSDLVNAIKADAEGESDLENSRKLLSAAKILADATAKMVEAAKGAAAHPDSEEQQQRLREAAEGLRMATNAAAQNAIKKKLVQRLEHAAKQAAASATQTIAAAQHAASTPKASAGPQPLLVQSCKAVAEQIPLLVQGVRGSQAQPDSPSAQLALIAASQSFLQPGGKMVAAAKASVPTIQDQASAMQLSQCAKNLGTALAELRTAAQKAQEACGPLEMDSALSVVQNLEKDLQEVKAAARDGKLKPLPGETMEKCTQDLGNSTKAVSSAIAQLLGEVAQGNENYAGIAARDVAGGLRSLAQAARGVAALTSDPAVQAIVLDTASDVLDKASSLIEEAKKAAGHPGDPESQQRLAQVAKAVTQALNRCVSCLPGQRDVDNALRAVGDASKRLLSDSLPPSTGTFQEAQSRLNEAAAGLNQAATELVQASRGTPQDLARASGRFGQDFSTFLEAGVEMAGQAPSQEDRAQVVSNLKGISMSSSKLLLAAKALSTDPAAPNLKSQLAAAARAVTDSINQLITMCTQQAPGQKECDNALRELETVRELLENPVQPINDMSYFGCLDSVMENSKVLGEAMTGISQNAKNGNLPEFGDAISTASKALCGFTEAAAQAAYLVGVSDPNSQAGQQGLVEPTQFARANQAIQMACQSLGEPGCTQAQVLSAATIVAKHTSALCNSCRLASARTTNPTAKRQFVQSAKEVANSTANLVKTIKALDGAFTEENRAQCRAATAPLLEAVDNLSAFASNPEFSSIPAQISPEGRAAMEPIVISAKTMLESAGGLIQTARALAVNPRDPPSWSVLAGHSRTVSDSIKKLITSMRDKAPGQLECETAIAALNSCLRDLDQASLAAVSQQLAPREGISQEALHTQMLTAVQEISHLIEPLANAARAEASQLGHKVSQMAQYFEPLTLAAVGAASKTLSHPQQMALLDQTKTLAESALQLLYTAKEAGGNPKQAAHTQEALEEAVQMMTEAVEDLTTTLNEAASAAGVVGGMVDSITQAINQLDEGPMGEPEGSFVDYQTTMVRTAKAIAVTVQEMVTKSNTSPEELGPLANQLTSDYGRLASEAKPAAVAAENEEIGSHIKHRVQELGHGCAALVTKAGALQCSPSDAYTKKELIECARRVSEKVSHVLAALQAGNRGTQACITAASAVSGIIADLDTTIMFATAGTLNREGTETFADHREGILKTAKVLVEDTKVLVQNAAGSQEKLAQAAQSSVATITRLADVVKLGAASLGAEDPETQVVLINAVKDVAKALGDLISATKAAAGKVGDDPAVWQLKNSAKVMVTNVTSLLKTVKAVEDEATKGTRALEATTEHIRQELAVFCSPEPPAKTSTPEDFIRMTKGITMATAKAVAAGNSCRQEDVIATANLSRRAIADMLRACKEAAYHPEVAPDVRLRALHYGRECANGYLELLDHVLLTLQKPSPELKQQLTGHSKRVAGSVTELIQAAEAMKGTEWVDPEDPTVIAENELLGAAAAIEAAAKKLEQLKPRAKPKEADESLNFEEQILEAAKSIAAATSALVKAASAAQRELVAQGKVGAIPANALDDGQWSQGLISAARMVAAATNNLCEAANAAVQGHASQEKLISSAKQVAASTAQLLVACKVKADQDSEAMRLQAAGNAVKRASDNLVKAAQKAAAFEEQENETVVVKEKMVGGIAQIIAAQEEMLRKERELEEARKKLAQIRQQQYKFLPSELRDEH

B1: Haemagglutinin (HA)-tagged PIPKIγ635 (enzyme, not shown: small tags and cut ends)
chain: MELEVPDEAESAEAGAVTAEAAWSAESGAAAGMTQKKAGLAEAPLVTGQPGPGHGKKLGHRGVDASGETTYKKTTSSTLKGAIQLGIGYTVGNLSSKPERDVLMQDFYVMESIFFPSEGSNFTPAHHFQDFRFKTYAPVAFRYFRELFGIRPDDYLYSLCNEPLIELSNPGASGSVFYVTSDDEFIIKTVMHKEAEFLQKLLPGYYMNLNQNPRTLLPKFYGLYCVQSGGKNIRVVVMNNVLPRVVKMHLKFDLKGSTYKRRASKKEKEKSLPTYKDLDFMQDMPEGLLLDSDTFGALVKTLQRDCLVLESFKIMDYSLLLGVHNIDQQERERQAEGAQSKADEKRPVAQKALYSTAMESIQGGAARGEAIETDDTMGGIPAVNGRGERLLLHIGIIDILQSYRFIKKLEHTWKALVHDGDTVSVHRPSFYAERFFKFMSSTVFRKSSSLKSSPSKKGRGALLAVKPLGPTAAFSASQIPSEREDVQYDLRGARSYPTLEDEGRPDLLPCTPPSFEEATTASIATTLSSTSLSIPERSPSDTSEQPRYRRRTQSSGQDGRPQEEPHAEDLQKITVQVEPVCGVGVVPKEEGAGVEVPPCGASAAASVEIDAASQASEPASQASDEEDAPSTDIYF
binding result: no binding
